B1: TPR t1 (parent)
chain: GACCAAUCUGCCCUCAGAGCUCGAGAACAUCUUCGGAUGCAGAGGAGGCAGGCUUCGGUGGCGCGAUAGCGCCAACGUCCUCAACCUCCAAUGCAUCCCACCACAUGAUGAUGCCUGAAGAGCCUUGGUUUUUUG

Variants of: B1
Assay: polymerase ribozyme fitness, log enrichment relative to wild type (log ratio); higher = more active; in vitro selection for triplet polymerase activity
Summary of the method: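 One round of in vitro selection, in triplicate, was applied to PCR-built, transcribed mutant libraries of each subunit of a heterodimeric triplet polymerase ribozyme. The steps were annealing with a biotinylated primer, partner subunit and triplets, incubation frozen at −7 °C, gel excision of extended constructs, streptavidin-bead capture and RT-PCR. Fitness is the logarithm, base 2, of genotype enrichment over wild-type enrichment from inverse-variance-weighted replicate averages of Illumina-sequenced inputs and outputs, keeping genotypes with ≥10 input reads and ≥1 read per output.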

Variant	polymerase ribozyme fitness (log ratio)
A5C A29U A121G	-0.781
C4U A74U	-1.1
A5C C11G A41C G71C C104U	-2.45
C4U G10A G52U U81G C123G U125A	-4.99
A5C G10C A43C C124G	-1.41
C4U C8G C13A U21G C70U G120C U132C	-0.598
C4U C72U	-0.857
C4U C72G	-0.855
C4G A29G A74C A83U	-4.38
C4U G45C	-2.12
A5C C53U	-1.88
C4U C8A C123G	0.914
C4U G47U U112C	-0.0324
C4U A43U C70U	-3.47
A5C G60A C89G G93A A111G	-4.73
C4G C13A A24C G63A G71C G113U G128C	-6.72
C4G A43U A46G C62U G63A U78C C114U G117U	-5.92
C4U A75G C76A G77U	-2.12
C4G C13U C20G A27U G71U U106A U125G	-5.01
C4U C56A C114A C124U	-3.31
C4U C82U	-0.905
C4U C49U U55G U96A	-2.11
C4U C8G C28A G35U G48C C49G C64U C88U A103G A111U	-6.13
C4G G10U G63U G69U G120A	0.883

Variant	polymerase ribozyme fitness (log ratio)
C4G A18U G25C C62A A111U	-6.22
C4U G17U G60U C89A	-4.98
C4U A37U G48U C73G C98A U106G U112A	-5.16
C4U G120A	0.077
A5C A27C	-3.97
C4G C115U	-2.19
C4U A41U U112A G113C G122C	-2.19
C4G C72A C85G C104U	-2.16
C4U A75U A95C U96A G120A	-1.94
C4U C53A C64U C88A C123U G127U U131G	-1.35
C4U G113U C124U	-4.72
C4U U9C C82U	0.225
A5C G63U	-1.6
C4G U9G A43U	-1.6
C4G G57C C64U A83G C85U	-3.12
A5C A46C C56A C102U	-3.74
A5C G60U G128A	-2.44
A5C C13U	-0.876
C4G C8U C15A G44U G61A	-4.85
C4U C8G G36U U38A G44U C73A C124A	-4.82
C4U C13A C53U	-2.94
A5C G60U	-1.18
A5C G113A	-1.96
A5C G113U	-3.73

Variant	polymerase ribozyme fitness (log ratio)
C4G G36U A90C C124U	-3.18
C4U C56A C86U	-1.22
A5C C13A C34A A83U A108G C124A	-5.47
A5C C13A C70U U87A	-3.43
C4G G10U C20G G69A C114U	-6.96
C4U C20A	-2.6
C4G C13U C31G C34G G63A C79U G113U	-7.83
C4G C15U G47C C73U A105U G107U C123G U126A	-7.47
C4G C101U	-2.36
C4U U21A C115G	-4.19
C4G C56U	-1.92
C4G U7C G69U	-0.0887
A5C C97G U112A G122U	-5.96
C4U C22G A43U G48U C49U C97U	-4.83
C4U C12U	0.148
C4G U9C A43G G47A C73A	-2.93
C4U G48U C56G U78A C98U U112G G135A	-4.14
C4U G71A U87A C97U	-1.86
A5C C11A U54A C104U	-0.94
C4G C8G A37U G45A U131G	-2.92
C4U A68G	-3.11
C4G A50U	-3.4
C4U C15A G45C G61U C72A	-2.72
A5C A83G U106A C123U G135A	-1.09

Variant	polymerase ribozyme fitness (log ratio)
C4G C80A	-3.83
C4U C22U	-4.42
C4U G117A	-2.18
C4U U96A U106A G122A	-0.892
C4G C104U	-0.878
C4G C12U	-2.1
C4G C13A G60A A66G C85A A121C	-2.37
C4G U59C G65A C85U G110C	-5.92
C4U A74G C89G U112G	-2.61
A5C A16C G44C	-4.17
C4U G10U G52U C88G C123U	-0.494
C4U G52U G128C U131A	-3.4
C4U C22G G48A C89A C124A	-3.16
A5C C86U	-0.23
A5C C13U C79A C114A	-2.82
C4U G17C G69U	-2.09
C4U A6C G48U G69U C86U C88A G113C	-3.07
C4G A6U A27U A111U	-4.8
C4U U7G C22G U55G A91C C124A	-3.16
C4U A29C G48U C56G A119G	-3.08
A5C C8A C28U U54C A84G	-3.62
A5C A91U	-2.68
C4U A6U A91U G113U	-3.89
A5C C62U C115A	-1.14

Variant	polymerase ribozyme fitness (log ratio)
C4U C20U U59G C89G U112A U125A U131C	-2.82
C4U U38A G45U C49G G71A	-4.53
A5C C15A	-1.17
C4G U112G	-0.359
C4U C62U A91U G120A	-2.44
A5C C8A C12U U54A C56U G63U C98G	-7.29
C4U C12U A16G C40A G57U	-2.2
C4G A5U C73G C89U C101G G120A G135A	-3.57
C4G C8G U81A A111C	-2.27
C4G G47A	-2.34
C4G U92C	-3.05
C4U C12A C53A C56U C89G A121G	-1.89
C4U C88A	-0.437
C4U G60A C86U G93A G117A U133A	-3.03
A5C C8G C11A A37U C123U	0.423
C4G C12A G45A G71U A100U U106A	-2.68
C4G A6C C8G G48U C72G C76G A95U C124U	-4.99
C4U C12G C49G A95U A111G	-1.16
C4U G17A	-2.72
C4G G77A C86U C97U	-3.31
A5C C56U C73A C115G G117A	-7.51
A5C C49U C53A C73U	-0.789
C4G C13G C49A G60A	-4.79
A5C A75G U130G U133A	-0.35

Variant	polymerase ribozyme fitness (log ratio)
A5C G10A C34A C123U	-0.78
C4G C73U C101A U129A	-1.48
C4U C79A U92C	-3.5
C4U A6U U78G C88U A91U A95U	-3.57
C4G C11A G71A C89U A111U U112A C123A G127C	-2.11
A5C G39A G69A G120C	-4.21
C4U A18G G58A G69U	-2.44
A5C C82A C101G	-3.77
C4G C62A C99A G113U	-6.39
C4U G10C G69U U125A	-2.15
C4U C15U G57U A100C	-4.18
A5C C13U C70U A84C U131A	-1.24
C4G G120C	-1.15
C4G G120A	-0.396
C4U G10U	-0.515
A5C C8G C12U C72U C94A	-1.48
A5C G10A C34A G63U	-4.64
C4G C12G G36C G44C C97G	-2.86
A5C A43C G45A C56A A91G G113A	-4.37
C4G C11A A16G A37U G69A G77C G113U C124U	-4.9
C4U A43U G69C	-4.04
C4U C12U C13U C124G	1.84
A5C C13U A46C C64U U78A C79G G113C	-5.7
C4U C34G	-5.92

Variant	polymerase ribozyme fitness (log ratio)
C4U C12A G44A U116A	-6.42
A5C G10A U92G	-3.52
C4U A27G C62A	-4.35
C4U U9G G35A G47U G48U G63A C104U G113U	-6.85
C4U C15U C72G C99U G120A	-4.79
A5C C12A A43G G60C	-4.18
C4U C49U C97U G128U	-2.93
A5C C56G C79A U106A	-2.63
C4U G48C G69C C101G	-4.61
C4U C49U A66G	-2.3
C4G C8G	-0.396
C4G C102A	-3.83
A5C G45U	-1.36
C4G A41U	-2.07
C4G A91C G120U	-1.84
A5C C22A C88G	-5.51
C4G G61U A66U C94A C123U U132A	-1.51
C4G G47A C79A A90G G120A	-3.84
C4U G52U G128U	-2.66
A5C C15A C62G A100U G117U	-4.14
C4U G45U C124A	0.121
C4G G63A	-2.73
C4G A29G U54C	-2.97

From the RNAGym collection of RNA variant scans (doi:10.1073/pnas.2313332121)
